# Measurements: article PMC5302901
# Biological target: Grb2 (UniProt Q07883)
# Experiment: IP of Grb2, blot for CD22
# Conditions: reference: CD22-WT; sites Y773,Y783,Y828,Y843,Y863
substance,measurement,value
CD22 (from UniProt P35329) F1/2/4/5/6,binding against the reference,lost
